According to PMC3374083 (Cell Death and Differentiation, 2012):

B1: monomeric human Fas receptor extracellular domain (domain or fragment)
chain: QVTDINSKGLELRKTVTTVETQNLEGLHHDGQFCHKPCPPGERKARDCTVNGDEPDCVPCQEGKEYTDKAHFSSKCRRCRLCDEGHGLEVEINCTRTQNTKCRCKPNFFCNSTVCEHCDPCTKCEHGIIKECTLTSNTKCKEEGSRSN
B2: human Fas ligand, recombinant (ligand)
chain: QIGHPSPPPEKKELRKVAHLTGKSNSRSMPLEWEDTYGIVLLSGVKYKKGGLVINETGLYFVYSKVYFRGQSCNNLPLSHKVYMRNSKYPQDLVMMEGKMMSYCTTGQMWARSSYLGAVFNLTSADHLYVNVSELSLVNFEESQTFFGLYKL

What was measured:
[1] = target: B2; assay: SPR
[2] = target: B1; assay: cell-based or functional assay
[3] = target: B1; assay: cell-based or functional assay; remark: listed apart in the source

| Kd [1] [nM] | DNA fragmentation (oligonucleosomes in the cytosol) in Jurkat cells, 8 h, EC50 [2] [nM] | Binder | Jurkat cell killing (cell-viability assay), EC50 [3] [nM] |
| --- | --- | --- | --- |
| 14 |  | B1 |  |
|  | 2.8 | B2 | 7.1 |
